± gives the standard error. For some assays here: Variants at the floor of the assay were thinned out.
B1: glmS ribozyme (parent)
chain: AUAAAAGCGCCAGAACUACAGAAAUGUAGUUGACGAGGAGGAGGUUUAUCGAAUUUUCGGCGGAUGCCUCCAAA

Experiments:
Settings in all cases: with glucosamine-6-phosphate
[1] = variants of: B1; assay: kcat; higher = faster cleavage; RNA array
Outline: (§1)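 E. coli RNA polymerase transcribed barcoded ribozyme variants in situ on sequenced MiSeq chips, which were tracked via a hybridised Cy3 probe at 37 °C. Tiles were imaged over ~14 h after glucosamine-6-phosphate (40 μM to 10 mM) in HEPES/KCl/Mg(OAc)2 buffer was flowed in. Normalised per-tile medians were fit to one- or two-exponential decays for kobs, and kcat and KM came from weighted Michaelis–Menten fits.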

[2] = variants of: B1; assay: KM; higher = weaker cofactor use; RNA array
Outline: as §1

[3] = variants of: B1; assay: self-cleavage kobs at 160 uM GlcN6P; higher = faster cleavage; RNA array
Outline: as §1

[4] = variants of: B1; assay: self-cleavage kobs at 640 uM GlcN6P; higher = faster cleavage; RNA array
Outline: as §1

[5] = variants of: B1; assay: self-cleavage kobs at 2500 uM GlcN6P; higher = faster cleavage; RNA array
Outline: as §1

[6] = variants of: B1; assay: self-cleavage kobs at 10000 uM GlcN6P; higher = faster cleavage; RNA array
Outline: as §1

[7] = variants of: B1; assay: self-cleavage kobs at 40 uM GlcN6P; higher = faster cleavage; RNA array
Outline: as §1

Variant | kcat [1] [s⁻¹] | KM [2] [µM] | self-cleavage kobs at 160 uM GlcN6P [3] [s⁻¹] | self-cleavage kobs at 640 uM GlcN6P [4] [s⁻¹] | self-cleavage kobs at 2500 uM GlcN6P [5] [s⁻¹] | self-cleavage kobs at 10000 uM GlcN6P [6] [s⁻¹] | self-cleavage kobs at 40 uM GlcN6P [7] [s⁻¹]
G40C U46G | 0.000983 ± 6.7e-05 | 2350 ± 280 | 7.1e-05 ± 3.3e-05 | 0.00021 ± 4.6e-05 | 0.000525 ± 0.00016 | 0.000789 ± 0.00015 | 
A39U A42U U55G G66U | 0.000223 ± 7.5e-06 | 1100 ± 96 |  | 8.2e-05 ± 2.5e-05 | 0.000166 ± 5.4e-05 | 0.000198 ± 3.5e-05 | 
G41A G66U | 8e-05 ± 4.8e-06 | 2190 ± 390 |  | 2.19e-05 ± 1e-05 | 4.07e-05 ± 7.8e-06 | 6.65e-05 ± 8.4e-06 | 
G41A G66C | 3.76e-05 ± 1.2e-06 | 1410 ± 200 |  |  | 2.49e-05 ± 1.2e-05 | 3.27e-05 ± 9.4e-06 | 
A39U A52G | 0.00113 ± 0.00012 | 4750 ± 800 | 5.2e-05 ± 1.4e-05 | 0.000134 ± 1.3e-05 | 0.000345 ± 5.5e-05 | 0.00078 ± 5.8e-05 | 
G38C C70A | 1.54e-05 ± 2.7e-06 |  |  |  |  |  | 
G40A U54C | 0.00522 ± 0.00053 | 908 ± 140 | 0.000724 ± 0.00016 | 0.00211 ± 0.0003 | 0.00449 ± 0.0013 | 0.00467 ± 0.0012 | 0.000248 ± 5.6e-05
G38C C68G | 1.31e-05 ± 3.9e-06 |  |  |  |  |  | 
G40U U55A | 0.00366 ± 0.0016 |  | 0.000217 ± 5.8e-05 | 0.000764 ± 0.00022 | 0.00204 ± 0.00041 | 0.00304 ± 0.00059 | 0.00026 ± 5.9e-05
G40U C70G | 0.000495 ± 8.8e-05 | 1770 ± 560 | 4.28e-05 ± 7.1e-06 | 0.000121 ± 1e-05 | 0.000346 ± 3.4e-05 | 0.000404 ± 3.4e-05 | 2.91e-05 ± 7.3e-06
G40U C70U | 0.00235 ± 0.00039 | 2200 ± 510 | 0.000139 ± 1.4e-05 | 0.000566 ± 6.5e-05 | 0.00132 ± 0.00013 | 0.00186 ± 0.0002 | 5.55e-05 ± 7.2e-06
A39C C67U | 0.000495 ± 9.5e-05 | 1150 ± 400 | 7.1e-05 ± 8.8e-06 | 0.000154 ± 1.3e-05 | 0.000377 ± 3.5e-05 | 0.000443 ± 5.1e-05 | 3.13e-05 ± 7.5e-06
A39C C58A | 0.000217 ± 9.9e-05 |  |  |  |  | 5.19e-05 ± 9.6e-06 | < 1e-05
G40U A53U | 0.00278 ± 0.00064 | 1300 ± 390 | 0.000254 ± 3.2e-05 | 0.000821 ± 9.1e-05 | 0.00203 ± 0.00093 | 0.00266 ± 0.00031 | 0.000101 ± 8.3e-06
G40U U47C | 0.00133 ± 0.00022 | 2010 ± 550 | 0.000104 ± 2.3e-05 | 0.000287 ± 3.6e-05 | 0.000958 ± 0.00014 | 0.00106 ± 0.00013 | 3.24e-05 ± 8.9e-06
A39G G43A | 0.0004 ± 8.6e-05 | 5960 ± 2100 |  | 5.25e-05 ± 1.8e-05 | 0.000109 ± 2.1e-05 | 0.000259 ± 4.9e-05 | 
A39G U65G | 0.0131 ± 0.0026 | 3200 ± 790 | 0.00068 ± 0.00014 | 0.00161 ± 0.00039 | 0.00553 ± 0.0018 | 0.0103 ± 0.0015 | 0.000177 ± 2.2e-05
A39C C70A | < 1e-05 |  |  | < 1e-05 |  |  | < 1e-05
G41C C67U C70A | 5.68e-05 ± 1.2e-05 | 9730 ± 3700 |  |  |  | 2.88e-05 ± 1.3e-05 | 
A39C G66U | 0.00114 ± 0.00017 | 3090 ± 910 | 8.13e-05 ± 2.3e-05 | 0.000198 ± 3.9e-05 | 0.000424 ± 8.2e-05 | 0.000908 ± 9.9e-05 | 
A39C G66C | 0.00165 ± 0.00036 | 2780 ± 960 | 7.03e-05 ± 1.6e-05 | 0.000348 ± 6.6e-05 | 0.00104 ± 0.00017 | 0.0012 ± 0.00016 | 3.24e-05 ± 1.1e-05
G40C U55A | 9.7e-05 ± 1.9e-05 |  | 0.000138 ± 6.6e-05 | 0.000125 ± 2.3e-05 | 7.26e-05 ± 1.4e-05 | 0.000133 ± 2.8e-05 | 
G38A G59C | < 1e-05 |  |  | < 1e-05 |  | < 1e-05 | < 1e-05
G38U C68G | 0.000246 ± 5.7e-05 | 108 ± 52 | 0.000349 ± 0.00017 | 0.000294 ± 4.2e-05 |  | 0.000182 ± 4e-05 | 6.28e-05 ± 1e-05
G41A U46G | 0.00092 ± 0.00015 | 2030 ± 530 | 6.59e-05 ± 1.8e-05 | 0.000206 ± 4.4e-05 | 0.000537 ± 0.00011 | 0.000747 ± 0.00018 | 
G41A U46A | 0.000569 ± 0.0001 | 1480 ± 630 | 4.5e-05 ± 1.2e-05 | 0.000168 ± 4.6e-05 | 0.000531 ± 7.8e-05 | 0.000462 ± 4.9e-05 | 3.02e-05 ± 1.4e-05
A39C G59A | < 1e-05 |  | < 1e-05 | < 1e-05 |  |  | < 1e-05
G40U U46G | 0.00101 ± 0.00013 | 1860 ± 390 | 7.71e-05 ± 1.5e-05 | 0.000242 ± 3.9e-05 | 0.000669 ± 8.8e-05 | 0.000785 ± 0.00012 | 2.93e-05 ± 1.4e-05
